Our source for the EC50, luciferase activity in HEK293/mGCGR reporter cells and EC50, luciferase activity in HEK293 reporter cells transfected with rat GCGR values is US20130251728A1.

For assay [1], the target named is mouse GCGR (full-length, on HEK293 reporter cells) (mouse) (UniProt Q61606). Nature of the assay: cell-based or functional assay.
Assay [2] addresses rat GCGR (full-length, on transiently transfected HEK293 reporter cells) (rat) (UniProt P30082). Nature of the assay: cell-based or functional assay.

Sequence of mouse GCGR (full-length, on HEK293 reporter cells) (mouse) (Q61606 27-485 limits assumed): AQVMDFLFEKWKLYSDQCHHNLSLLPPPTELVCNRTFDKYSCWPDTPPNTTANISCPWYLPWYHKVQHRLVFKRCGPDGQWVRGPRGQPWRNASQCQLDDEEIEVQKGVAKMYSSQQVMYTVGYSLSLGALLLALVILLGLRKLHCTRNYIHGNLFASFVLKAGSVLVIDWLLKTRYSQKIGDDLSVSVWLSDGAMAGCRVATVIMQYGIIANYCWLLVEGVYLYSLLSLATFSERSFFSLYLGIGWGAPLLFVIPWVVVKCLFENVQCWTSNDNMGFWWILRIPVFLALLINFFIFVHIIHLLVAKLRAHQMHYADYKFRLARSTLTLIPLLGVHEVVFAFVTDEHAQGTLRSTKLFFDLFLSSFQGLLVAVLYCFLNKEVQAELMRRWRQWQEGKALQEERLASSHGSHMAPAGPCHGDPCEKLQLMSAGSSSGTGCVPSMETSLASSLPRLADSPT
Sequence of rat GCGR (full-length, on transiently transfected HEK293 reporter cells) (rat) (P30082 27-485 limits assumed): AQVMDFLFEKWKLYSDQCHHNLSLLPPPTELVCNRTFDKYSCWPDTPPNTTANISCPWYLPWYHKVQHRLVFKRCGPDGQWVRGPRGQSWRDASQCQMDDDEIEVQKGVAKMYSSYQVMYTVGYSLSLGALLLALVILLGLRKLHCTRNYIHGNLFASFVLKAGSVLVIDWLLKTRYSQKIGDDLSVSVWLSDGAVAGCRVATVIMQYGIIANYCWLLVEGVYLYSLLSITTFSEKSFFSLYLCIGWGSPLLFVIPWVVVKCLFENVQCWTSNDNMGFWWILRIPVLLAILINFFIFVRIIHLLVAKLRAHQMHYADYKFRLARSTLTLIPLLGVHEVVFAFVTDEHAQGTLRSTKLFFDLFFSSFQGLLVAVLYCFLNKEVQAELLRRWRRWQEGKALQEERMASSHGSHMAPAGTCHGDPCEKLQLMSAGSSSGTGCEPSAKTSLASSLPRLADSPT

The substance “glucagon (GCG) (from UniProt P01275 53-81) (ligand)” showed an EC50, luciferase activity in HEK293/mGCGR reporter cells in assay [1] of 83 pM. The EC50, luciferase activity in HEK293 reporter cells transfected with rat GCGR in assay [2] was found to be 252 pM.
